Measured values published in article doi:10.1101/2020.07.31.231746.

Legend:
Test in all cases: flow cytometry on cells
[1] = biological target: Y353, yeast surface-displayed ACE2(614) variant from sort 4 (human) (UniProt Q9BYF1)
[2] = biological target: Y373, yeast surface-displayed ACE2(614) variant from sort 5 (human) (UniProt Q9BYF1)
[3] = biological target: best-characterized ACE2(614) mutant from sort 3.1, yeast surface-displayed (human) (UniProt Q9BYF1)

SARS-CoV-2 spike RBD monomer (328-533), 8XHis tag and AviTag, biotinylated (from UniProt P0DTC2 328-533) (domain or fragment)
Kd [1]: 190 pM
Kd [2]: 120 pM
Kd [3]: 520 pM
